Changes are numbered by the printed parent chain. In names and notes the source's numbering stands. Where two headings read alike, the source gives them in different places.
B1: IGF2R domain 11, wild type, expressed in Pichia pastoris with C-terminal His6 tag (receptor)
chain: NEHDDCQVTNPSTGHLFDLSSLSGRAGFTAAYSEKGLVYMSICGENENCPPGVGACFGQTRISVGKANKRLRYVDQVLQLVYKDGSPCPSKSGLSYKSVISFVCRPEAGPTNRPMLISLDKQTCTLFFSWHTPLACEQATHHHHHH
notes: Alpha-factor signal is cleaved during secretion; soluble 17 kDa protein; also called WT; wild type domain 11
B2: IGF2R domain 11 E1544A (receptor)
chain: B1 chain with E34A
notes: Secreted from Pichia pastoris
B3: IGF2R domain 11 E1544K (enhanced mutant) (receptor)
chain: B1 chain with E34K
notes: Secreted from Pichia pastoris
B4: IGF2R domain 11 E1544V (receptor)
chain: B1 chain with E34V
notes: Secreted from Pichia pastoris
B5: IGF2R domain 11 I1572A (null mutant) (receptor)
chain: B1 chain with I62A
notes: Secreted from Pichia pastoris
B6: Fc-tagged enhanced mutant IGF2R domain 11 (11^E1544K-Fc) (Fc fusion)
chain: NEHDDCQVTNPSTGHLFDLSSLSGRAGFTAAYSKKGLVYMSICGENENCPPGVGACFGQTRISVGKANKRLRYVDQVLQLVYKDGSPCPSKSGLSYKSVISFVCRPEAGPTNRPMLISLDKQTCTLFFSWHTPLACEQAT
modifications: N-glycosylated with Man3GlcNAc2 (Drosophila cells)
notes: Homodimer, secreted from Drosophila D.Mel-2 cells; not shown: human IgG1 Fc domain, amplified from IMAGE clone 4851063 (ATCC-6878978)

What was measured:
[1] = target: T1, Insulin-like Growth Factor II (IGF-II), recombinant human (human, UniProt P01344 25-91, biotinyl group (site not stated) when immobilised for SPR; not biotinylated as SPR analyte or in ITC); assay: SPR, steady-state KD relative to wild type domain 11
T1 construct: mature; Bought as Biotinyl-IGF-II from GroPep for immobilisation on streptavidin chips; also called IGF2; Biotinyl-IGF-II
T1 sequence (P01344 25-91): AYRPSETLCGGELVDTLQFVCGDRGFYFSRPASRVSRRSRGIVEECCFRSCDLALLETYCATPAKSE
Protocol: […]. Values are the mean±S.E.M. of three separate experiments.
(§1) Kinetic analysis by Surface Plasmon Resonance (SPR) was conducted on a BIAcore 3000 biosensor (BIAcore, Uppsala, Sweden) at 25° C. in HBS-EP (10 mM HEPES, pH 7.4, 150 mM NaCl, 3 mM EDTA, 0.005% surfactant P20) at a flow rate of 40 μl/min. […] Kinetic experiments consisted of a two minute injection of analyte followed by a 100s dissociation phase in running buffer, after which the binding surface was regenerated with a 2 minute injection of 2 M MgCl₂. A blank flow cell was used for in-line reference subtraction of changes due to differences in refractive index of running buffer versus sample and a buffer-only injection was used to subtract instrument noise and drift. Injections were performed in duplicate for each concentration and in a randomised order. Kinetic parameters were determined by global fitting of sensorgrams to a two-state (conformational change) binding model using BIAevaluation software version 4.0.1. In all cases the minor component made an insignificant contribution to the overall affinity and as such only the kinetic parameters of the major binding component were used. For each interaction the dissociation affinity constant (KD) was also calculated by fitting of the response of each concentration at equilibrium to a steady-state affinity model using BIAevaluation. In order to investigate the influence of ionic strength, kinetic experiments were conducted in HBS-EP running buffers containing the desired NaCl concentration. In each case, analyte samples were made up in the appropriate running buffer prior to injection.
Following purification, the binding of each mutant construct to IGF2 was assessed by SPR and compared to the wild type domain 11.

[2] = target: T1, Insulin-like Growth Factor II (IGF-II), …; assay: as above; remark: listed apart in the source
Protocol: as §1, with “BIAevaluation.” for “BIAevaluation. In order to investigate the influence of ionic strength, kinetic experiments were conducted in HBS-EP running buffers containing the desired NaCl concentration. In each case, analyte samples were made up in the appropriate running buffer prior to injection.”

[3] = target: T1, Insulin-like Growth Factor II (IGF-II), …; assay: as above; remark: listed apart in the source
[4] = target: T1, Insulin-like Growth Factor II (IGF-II), …; assay: ITC
Protocol: Calorimetric measurements were performed using a VP-ITC microcalorimeter (MicroCal). All solutions were thoroughly degassed before use by stirring under vacuum. […] The sample cell contained either wild type domain 11 (7 uM) or the E1544A mutant (8 μM), also in HBS-E buffer. To correct for the heat effects of dilution and mixing, reaction heats obtained from a control experiment, in which IGF2 was injected into HBS-E, were subtracted. calorimetric data were analysed using MicroCal ORIGIN software (version 5.0) supplied with the instrument. Thermodynamic parameters were derived by fitting the binding isotherms to a single-site binding model. Values for dissociation affinity constants (KD) were determined from duplicate experiments.
In order to validate the SPR sensorgram data, ITC was used to assess the binding affinity between domain 11 and IGF-II. The affinity of the E1544A mutant was also assessed by ITC in order to confirm whether use of a second technique agreed as to the apparent increase in affinity (FIG. 6 and Table 6). Titrations were performed using […] injections of 40 μM IGF-II (after an initial 7.5 μl injection) into the reaction cell containing wild type domain 11 or the E1544A mutant. […] The two fold differences may be simply accounted for by the fidelity of both techniques.

[5] = target: T1, Insulin-like Growth Factor II (IGF-II), …; assay: SPR, biotinylated IGF-II on a streptavidin chip, domain 11 protein injected as analyte at 16384 to 32 nM
Protocol: The polymorphism G1619R (l) has an apparent wild type interaction and the E1544A (d) mutation has a modest positive affect on IGF-II binding.
as §1, with “In all cases the minor component made an insignificant contribution to the overall affinity and as such only the kinetic parameters of the major binding component were used.” left out, “In order to investigate the influence of ionic strength, kinetic experiments were conducted in HBS-EP running buffers containing the desired NaCl concentration. In each case, analyte samples were made up in the appropriate running buffer prior to injection.” left out
Following purification, the binding of each mutant construct to IGF2 was assessed by SPR and compared to the wild type domain 11. […]

[6] = target: T1, Insulin-like Growth Factor II (IGF-II), …; assay: SPR, biotinyl-IGF-II immobilised
Excerpt: (§2) The affinity of versions of Fc-tagged domain 11 fusion proteins, and domain 11 constructs, for IGF-II were compared using surface plasmon resonance (BIAcore 3000). Attempts were made to immobilize Fc-tagged domain 11 proteins upon a sensor chip surface (CM5 and CM5-proteinA) but we encountered similar problems as described above with immobilised monomeric domain 11. Instead, immobilisation of biotinylated IGF-I and IGF-II on separate flow cells of a streptavidin coated sensor chip (BIAcore) generated reproducible sensorgram profiles when Fc-tagged and untagged domain 11 proteins were passed over the surface as analytes. The Fc-tagged domain 11 kinetic data performed in triplicate generated sensorgrams that were analyzed using a bivalent analyte model. […] Both Fc-tagged proteins appeared to have reduced off-rates compared to the untagged monomers.

[7] = target: T1, Insulin-like Growth Factor II (IGF-II), …; assay: SPR, biotinyl-IGF-II immobilised, bivalent analyte model
Excerpt: as §2

| Binder | Relative Affinity [1] | Relative Affinity [2] | Relative Affinity [3] | further results |
| --- | --- | --- | --- | --- |
| B1 | 1 fold vs wild type domain 11 | 1 fold vs wild type domain 11 | 1 fold vs wild type domain 11 | – |
| B2 | 2.79 fold vs wild type domain 11 | 2.79 fold vs wild type domain 11 | 2.79 fold vs wild type domain 11 | relative affinity increase over wild type by ITC [4]: ~2 fold vs wild type domain 11 |
| B3 | – | 6.12 fold vs wild type domain 11 | 6.12 fold vs wild type domain 11 | – |
| B4 | – | 1.96 fold vs wild type domain 11 | 1.96 fold vs wild type domain 11 | – |
| B5 | – | – | – | binding result [5]: no binding (tested: 16384 nM) |
| B6 | – | – | – | RU response relative to 11-Fc at equal concentrations [6]: ~2 fold vs 11-Fc; molar affinity relative to 11-Fc [7]: ~2 fold vs 11-Fc |

From patent US20130071366A1 (CANCER RESEARCH TECHNOLOGY, published 2013)
